Data from article PMC6739812 (Protein Science : A Publication of the Protein Society, 2019).

Biological target: the molecule itself
Assay: SEC-MALS

B1: InvCΔ79 (Salmonella T3SS ATPase InvC lacking the first 79 residues, with C-terminal Strep-tag) (domain or fragment, Salmonella typhimurium, UniProt P0A1B9 80-431, looked up)
chain: GRALSAWVGYSVLGAVLDPTGKIVERFTPEVAPISEERVIDVAPPSYASRVGVREPLITGVRAIDGLLTCGVGQRMGIFASAGCGKTMLMHMLIEQTEADVFVIGLIGERGREVTEFVDMLRASHKKEKCVLVFATSDFPSVDRCNAAQLATTVAEYFRDQGKRVVLFIDSMTRYARALRDVALASGERPARRGYPASVFDNLPRLLERPGATSEGSITAFYTVLLESEEEADPMADEIRSILDGHLYLSRKLAGQGHYPAIDVLKSVSRVFGQVTTPTHAEQASAVRKLMTRLEELQLFIDLGEYRPGENIDNDRAMQMRDSLKAWLCQPVAQYSSFDDTLSGMNAFADQN
stoichiometry N: 2
